From the nanobody polyreactivity screen of Harvey et al. (2022)

Assay: yeast display, Sf9 membrane polyspecificity reagent, FACS + sequencing; frameworks hold sequencing errors
How it was run: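 Galactose-induced (36–48 hours) yeast carrying a synthetic nanobody display library were exposed to 10% biotinylated, detergent-solubilized Sf9 membrane reagent at 4 °C for 1 hour. FACS followed streptavidin microbead enrichment, using low and high (top ~1%) gates for expression (anti-HA) and reagent binding (streptavidin). Colony PCR, MiSeq 2 × 250 sequencing and CDR-length filtering followed. Labels for polyreactivity reflect the gate of origin.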

| Sequence | polyreactivity (PSR sort gate) |
| --- | --- |
| QVQLVESGGGLVQAGGSLRLSCAASGSIFDVYAMGWYRLAPGKERELVAAINWTGGSTYYADSVKGRFTISRDNAKNTVYLQMNSLKPEDTAVYYCAASYYYGTEHYDYWGQGTQVTVSS | low polyreactivity |
| QVQLVESGGGLVQAGGSLRLSCAASGSIFGYYSMGWYRQAPGKERELVAAISRSGTRTYYADSVKGRFTISRDNAKNTVYVQMNSLKPEDTAVYYCNAVQQYYGTWGYGYWGQGTQVSVSS | high polyreactivity |
| QVQLVESGGGLVQAGGSLRLSCAASGFIFDGYAMGWYRQAPGKERELVAAISSVGSTYYADSVKGRFTISRDNAKNTVYLQMNSLKPEDTAVYYCARGLEERYDYWGQGTQVTVSS | low polyreactivity |
| QVQLVESGGGLVQAGGSLRLSCAASGSTFSFNAKGWYRQAPGKARELVAAITGGDGTNYADSVKGRFTISRDNAKNTVYLQMNSLKPEDTAVNYCAADQWGSTEDYWFTYGYWGQGTQVTVSS | low polyreactivity |
| QVQLEESGGGLVQAGGSLRLSCAASGSTCGYYAMGWYRQAPGKERELVAVITRGGSTYYADSVKGRFTISRDNAMNTVYLQMNSLKPEDTAVYYCNARVQAVHYGYWGQGTQVPVSS | high polyreactivity |
| QVQLVESGGGLVQAGGSLRLSCAASGSIFGVYTMGWYRQAPGKERELVAAITSAGSTYADSVKGRFTISRDKAKNTVYLQMNSLKPEDTAVYYCNAQSVLLSLRVELREPHEYWGQGTQVTVSS | low polyreactivity |
| QVHLVESGGGLVQAGGSLRLSCAASGRIFSLNAMGCDRQAPGKERELVAAISTGGASTYYADSVKGRFTISRDNAKNTVYLQMNSLKPEDTAVYSCAADLGYEYDYWGQGTQVTVSS | high polyreactivity |
| QVQLVESGGCLVQAGGSLRLSCADSGSTFVIYYMGWYRQAPGKERELVAAISYSGGSTYYADSVKGRFTISRDNAKNTVYLQMNSLKPEDTAVYYGYDYWGQGTQVTVSS | low polyreactivity |
| QVQLVESGGGLVQAGGSLRLSCAASGSIFKHNDMGWYRQAPGKERELVAAISRSGGSTYYADSVKGRFTISRDNAKNTVYLQMNSLKPEDTAVYYCAKDGVGAPSTYNYWGQGTQVTVSS | high polyreactivity |
| QVQLVESGGGFVQAGGSLRLSCAASGLTLFRYAMGWYSQAPGKEREFVAAISPSGDRTYYADSVKGRFTISRDNAKNTVDLQMNSLKPEDTAVYYCNAWRYDYWGQGTQVTVSS | high polyreactivity |
| QVQLVESGGGLVQAGGSLRLSCAASGSIFGGNDMGWYRQAPGKERELVAAITSSGGSTYYADSVKGRFTISRDNAKNTVYLQMNSLKPEDTAVYYCYADYYGPYRDYGYWGQGTQVTVSS | low polyreactivity |
| QVQLVESGGGLVQAGGSLRLSCAASGSIIVYNTMGWYRQAPGKERELVAAITVRDDSTYYADSVKGRFTISRDYAKNTVYLQMNSLNPEDTAVYYCNARGYFLIGRDYWGQGTQVTVSS | low polyreactivity |
| HVQLVESGGGLVQAGGSLRLSCAASGSTLWYNAMGWNRQAPGKERELVAVITWTGGSTYYADSVKGRFTISRDNAKNTVYLQMNSLKPEDTAVYYCAVRWYFGNRYKYYYWGQGTQVTVSS | high polyreactivity |
| QVQLVESGGGLVQAGGSLRLSCAATGRTFYVNAMGWYRQAPGLEREFVARITSGGSTYYADSVKGRFTISPDKAKNTVYVQKNSLKPEDTAVYYCAADYVSLSVFSYCAWYDYWGQGTQVTVSS | low polyreactivity |
| QVQLVESGGGLVQAGGSLRLSCAASGFIFQKYAMGWYRQAPGKERELVAAISRSGGSTYYADSVKGRFTISRDNAKNTDYLQMNSLKPEDTAVYYCAARYKGRAFWMDYWGQGTQVTVSS | high polyreactivity |
| QVQLVESGGGLVQAGGSLRLSCADSGYTFGTYAMGWYIKAPGKERELVAAISNSGGSTYYADSVKGRFTISRDNAKNTVYLQMNSLKPEDTAVYYFNTDGLVRNGPFYSWGLGTQVTVSS | low polyreactivity |
| QVQLVESGGGLVQAGGSLRLSCAASGSTFGYNTMGWYRQAPGNERELVAAITGTGRTNYADSVKGRFTISRDNAKNTVYLQMNRLNPEDTAVYYCNARQAGTRYKYGYYGRYYWGQGTQVTVSS | high polyreactivity |
| QVQLVESGGGLVQAGGSLRLSCAASGSIFGFNALGWYRQAPGKERELVASITWSGSSTYYADSVKGRFTISRDNAKNTVYLQMNSLKPEDTAVYYCAKEFVHTHFYLWHVFKYGYWGQGTQVTVSS | low polyreactivity |
| QVQLVESGVGLVQAGGSLRLSCAASVSTFAYNAMGWYRQSPGKEREIVASISWSGGSTYYADSVKGRFTISRDNAKNSVYLQMNSLKPEDTAVYYCAADLNAYPQRAYDYWGQGTQVTVSS | low polyreactivity |
| QVQLVESGGGIVQAGGSLRLSSAASGRIFDTNAMGWYRQAPGKERELVAAITGRGGGTYYADSVKGRFTISRDNAKNTVYLQMNSLKPEDTAVYYCNAFAPIYRHYSWGSGLDYWGQGTLVTVSS | high polyreactivity |
| QVQLVESGGGLVQAGGSLRLSCAASGSILQRNAMGWYRQAPGKERELVAAISSSGDNTYYADSVKGRITISRDNAKNTVYLQMNSLKPEDTAVYYCATDADIYFQEYDYWGQGTQVTVSS | low polyreactivity |
